Source: the supplement of paper PMC7125110
± gives the standard error. For some assays here: Variants at the floor of the assay were thinned out.

B1: glmS ribozyme (parent)
chain: AUAAAAGCGCCAGAACUACAGAAAUGUAGUUGACGAGGAGGAGGUUUAUCGAAUUUUCGGCGGAUGCCUCCAAA

Key:
Conditions in all cases: with glucosamine-6-phosphate
glucosamine-6-phosphate [1] = variants of: B1; assay: kcat; higher = faster cleavage; RNA array
Outline: (§1)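 kcat and KM were obtained from weighted Michaelis–Menten fits across concentrations of kobs values. Those came from one- or two-exponential decay fits to per-tile medians normalised to baseline and to non-cleaving reference variants. The variants were barcoded ribozymes transcribed in situ by E. coli RNA polymerase on sequenced MiSeq chips and tracked through a hybridised Cy3 probe at 37 °C, with 40 μM to 10 mM glucosamine-6-phosphate in HEPES/KCl/Mg(OAc)2 buffer flowed in.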

glucosamine-6-phosphate [2] = variants of: B1; assay: KM; higher = weaker cofactor use; RNA array
Outline: as §1

glucosamine-6-phosphate [3] = variants of: B1; assay: self-cleavage kobs at 40 uM GlcN6P; higher = faster cleavage; RNA array
Outline: as §1

glucosamine-6-phosphate [4] = variants of: B1; assay: self-cleavage kobs at 160 uM GlcN6P; higher = faster cleavage; RNA array
Outline: as §1

glucosamine-6-phosphate [5] = variants of: B1; assay: self-cleavage kobs at 640 uM GlcN6P; higher = faster cleavage; RNA array
Outline: as §1

glucosamine-6-phosphate [6] = variants of: B1; assay: self-cleavage kobs at 2500 uM GlcN6P; higher = faster cleavage; RNA array
Outline: as §1

glucosamine-6-phosphate [7] = variants of: B1; assay: self-cleavage kobs at 10000 uM GlcN6P; higher = faster cleavage; RNA array
Outline: as §1

Variant | kcat (glucosamine-6-phosphate [1]) [s⁻¹] | KM (glucosamine-6-phosphate [2]) [µM] | self-cleavage kobs at 40 uM GlcN6P (glucosamine-6-phosphate [3]) [s⁻¹] | self-cleavage kobs at 160 uM GlcN6P (glucosamine-6-phosphate [4]) [s⁻¹] | self-cleavage kobs at 640 uM GlcN6P (glucosamine-6-phosphate [5]) [s⁻¹] | self-cleavage kobs at 2500 uM GlcN6P (glucosamine-6-phosphate [6]) [s⁻¹] | self-cleavage kobs at 10000 uM GlcN6P (glucosamine-6-phosphate [7]) [s⁻¹]
A39C C70U | 0.000652 ± 0.00018 | 1210 ± 530 | 4.36e-05 ± 6.9e-06 | 7.31e-05 ± 9.7e-06 | 0.00019 ± 2.5e-05 | 0.000461 ± 8.2e-05 | 0.000616 ± 7.3e-05
G13A A14G | 0.00208 ± 0.00043 | 3430 ± 1000 | 3.73e-05 ± 1.1e-05 | 7.81e-05 ± 1.4e-05 | 0.000393 ± 6.9e-05 | 0.000888 ± 0.00012 | 0.00151 ± 0.00023
U30G A64C | 5.41e-05 ± 5.3e-06 | 4950 ± 1100 | – | – | – | – | 3.61e-05 ± 1.5e-05
A12C U46A | 0.00133 ± 0.00029 | 2440 ± 900 | – | 0.000101 ± 2.8e-05 | 0.000302 ± 4.8e-05 | 0.000533 ± 9.6e-05 | 0.00122 ± 0.00017
C11U G38A | < 1e-05 | – | < 1e-05 | < 1e-05 | – | – | < 1e-05
A14U A52U | 0.000167 ± 2.7e-06 | 2930 ± 110 | – | – | 3.02e-05 ± 7.3e-06 | 7.62e-05 ± 7.8e-06 | 0.000129 ± 1e-05
U30G G66C | 0.000132 ± 1.5e-05 | 1620 ± 600 | – | – | – | 9.1e-05 ± 1.7e-05 | 0.00011 ± 1.6e-05
G37C A39U | 1.36e-05 ± 1e-06 | 1230 ± 450 | – | – | – | – | –
A33U A53U G66A | 7.62e-05 ± 1.7e-06 | – | – | – | – | – | –
G35U A36C | < 1e-05 | – | < 1e-05 | < 1e-05 | – | < 1e-05 | < 1e-05
A52G C70U C71G | 2.63e-05 ± 1.1e-05 | – | – | – | – | 4.78e-05 ± 1.9e-05 | –
C8U G35A U45A U69G | 1.02e-05 ± 2.7e-06 | – | – | – | – | – | –
U54C C58G | 5.26e-05 ± 4.8e-06 | 7250 ± 1300 | – | – | – | – | 3.05e-05 ± 1.2e-05
A53C C70A | 5.94e-05 ± 1.5e-05 | – | < 1e-05 | – | – | 6.85e-05 ± 1.7e-05 | 5.03e-05 ± 1.1e-05
U45C | 0.00494 ± 0.00052 | 2740 ± 390 | 7.81e-05 ± 1.8e-06 | 0.000232 ± 9.5e-06 | 0.000897 ± 2.2e-05 | 0.00247 ± 6.8e-05 | 0.00385 ± 9.4e-05
A14G U56G | 0.0818 ± 0.014 | 1560 ± 320 | 0.00201 ± 0.00033 | 0.0087 ± 0.0018 | 0.0223 ± 0.0035 | 0.0673 ± 0.027 | 0.0704 ± 0.02
A12U A33U | 0.000444 ± 0.0001 | 3790 ± 1500 | – | – | 7.77e-05 ± 8.6e-06 | 0.00015 ± 1.6e-05 | 0.000348 ± 3.2e-05
A53G U57A | 0.000309 ± 2.3e-05 | 3400 ± 490 | – | – | 4.7e-05 ± 1.1e-05 | 0.000134 ± 2.3e-05 | 0.00023 ± 2.9e-05

Variant | kcat (glucosamine-6-phosphate [1]) [s⁻¹] | KM (glucosamine-6-phosphate [2]) [µM] | self-cleavage kobs at 40 uM GlcN6P (glucosamine-6-phosphate [3]) [s⁻¹] | self-cleavage kobs at 160 uM GlcN6P (glucosamine-6-phosphate [4]) [s⁻¹] | self-cleavage kobs at 640 uM GlcN6P (glucosamine-6-phosphate [5]) [s⁻¹] | self-cleavage kobs at 2500 uM GlcN6P (glucosamine-6-phosphate [6]) [s⁻¹] | self-cleavage kobs at 10000 uM GlcN6P (glucosamine-6-phosphate [7]) [s⁻¹]
U49G U65A | 2.22e-05 ± 4.5e-06 | – | – | < 1e-05 | – | – | –
G38C C67U C70G | 1.59e-05 ± 1.8e-06 | – | – | – | – | – | –
A39U A64C | 0.000269 ± 4.6e-05 | 3410 ± 1100 | – | – | 5.07e-05 ± 7e-06 | 9.58e-05 ± 1.3e-05 | 0.00021 ± 1.9e-05
U69A C71A | 2.44e-05 ± 5.9e-06 | – | – | – | – | – | –
G29A U47A | 0.00354 ± 0.0016 | – | 0.000101 ± 1.2e-05 | 0.000152 ± 2.6e-05 | 0.000727 ± 0.00012 | 0.00153 ± 0.00024 | 0.00308 ± 0.00042
A52G C71U | 0.00186 ± 0.00014 | 3440 ± 380 | 2.74e-05 ± 6e-06 | 7.83e-05 ± 8.6e-06 | 0.000293 ± 2.7e-05 | 0.00078 ± 0.00015 | 0.00138 ± 0.00012
U46C C71A | 0.000545 ± 4.7e-05 | 811 ± 130 | – | 8.19e-05 ± 2.2e-05 | 0.000252 ± 4.5e-05 | 0.00045 ± 9.1e-05 | 0.000453 ± 0.00011
G29U G40U | 0.000422 ± 3.9e-05 | 1290 ± 220 | – | 4.21e-05 ± 1.1e-05 | 0.00014 ± 1.5e-05 | 0.00032 ± 4.6e-05 | 0.000349 ± 4.9e-05
G29A G59U | 1.01e-05 ± 3.5e-06 | – | – | – | < 1e-05 | – | –
G41A | 0.00567 ± 0.0025 | – | 0.000349 ± 0.00013 | 0.00036 ± 6.4e-05 | 0.000923 ± 0.0001 | 0.00264 ± 0.00017 | –
G41A U47C | 7.04e-05 ± 3.2e-07 | 1800 ± 30 | – | – | – | 4.08e-05 ± 1e-05 | 5.98e-05 ± 8.4e-06
G13U A15G | 0.00265 ± 0.0011 | – | – | 0.000116 ± 5e-05 | 0.000388 ± 7.5e-05 | 0.000584 ± 0.00014 | 0.00191 ± 0.00025
G9A A48G G51A G63A | 1.15e-05 ± 4.5e-06 | – | – | – | – | – | –
U47C G63A | < 1e-05 | – | – | – | < 1e-05 | – | –
G32A U69G | 6.22e-05 ± 1.2e-05 | – | 3.77e-05 ± 1.4e-05 | – | 0.000117 ± 1.8e-05 | 5.99e-05 ± 9.1e-06 | 5.26e-05 ± 8.5e-06
A6U G59A C68U | 1.04e-05 ± 3.6e-06 | – | – | – | – | – | –
C16A U65C | 2.42e-05 ± 3.7e-08 | 654 ± 8.5 | – | – | – | – | –
A15G U47C | 0.0057 ± 0.00076 | 1660 ± 350 | 0.000151 ± 3.2e-05 | 0.000348 ± 0.00016 | 0.00164 ± 0.0005 | 0.00388 ± 0.00099 | 0.00476 ± 0.00083
